Test: yeast display, Sf9 membrane polyspecificity reagent, FACS + sequencing; frameworks hold sequencing errors
How it was run: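 Synthetic nanobody libraries on Saccharomyces cerevisiae BJ5465 were galactose-induced for 36–48 hours, stained 1 hour at 4 °C with 10% biotinylated, detergent-solubilized Sf9 membrane reagent and enriched on streptavidin microbeads. FACS then separated cells into low and high (top ~1%) gates by anti-HA (expression) and streptavidin (reagent binding) fluorescence. Genes were colony-PCR amplified, MiSeq 2 × 250 sequenced and CDR-length filtered. A clone's polyreactivity label is that of its gate of origin.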
With “QVQLVESGGGLVQAGGSLRLSCAASGRIFQLYTMGWYIQAPGKERELVAAITSGTSTSYADSVKGRFTISRDNAKNTVYLQMNSLKPEDTAVYYCNKGSVSYSSVFVPYESDYWGQGTQVTVSS” the “polyreactivity (PSR sort gate)” value was “low polyreactivity”. For “QVQLVESGGGLVQAGGSLRLSCAASGSIFGGYALGWYRQAPGKERELVAAISKTGGTTYYADSVKGRFTISRDNALNTVYLQMNSLKPEDTAVYYWNAPKRYYGSAYGYGYWGQGTQVTVSS”, the “polyreactivity (PSR sort gate)” value was “high polyreactivity”. For “QVQLVESGGGLVQAGGSLRLSCAASGSTFLYYAMGWYRQAPGKERELVAVISWSGVSTYYADSVKGRFTISRDNAKNTVYLQMNSLKPEDTPVYYCNTGNQYIRTYGYWGQGSQVTVSS”, the “polyreactivity (PSR sort gate)” value was “low polyreactivity”. In the case of “QVQLVESGGGLVQAGGSLRLSCAASGIIFVPYAMGWYRQAPGKERELVAANNSGGNTYYADSVKGRFTISRDNAKNTVYLLIYSLKPEDTAVYYCGAYSKYPVFDYNYWGQGTQVTVSS”, the “polyreactivity (PSR sort gate)” value is reported as “high polyreactivity”. With “QVQLVESGGGLLQAGGTLRLSCAASGSTFSKNAMGWYRQAPGKERELVAAISSRGGNTYYADSVKGRFTISRDNAKNTVYLQMNSLKPEDTAVYYCAKALRTYQRTGWYDYWGQGTQVTVSS” the “polyreactivity (PSR sort gate)” value was “high polyreactivity”. With “QVQLVESGGGLVQAGGSLRLSCAASGSIFGYYAMGWYRQAPGKERELVAAITRSGGSTYYADSVKGRFTISRDNAKNTVYLQMNSLKPEDTAVYYCNAVRYAVRLPAFPGYDYWGQGTQVTVSS” the “polyreactivity (PSR sort gate)” value was “high polyreactivity”. For “QVQLVESGGGLVQAGGSLRLSCAASGSILGPYAMGWYRQAPGKERELVAAISQSGARTYYADSVKGRFTISRDNAKNTVYLQMNSLKPEDTAVYYCAAQSRKGGWSAYYYWGQGTQVTVSS”, the “polyreactivity (PSR sort gate)” value was “high polyreactivity”. For “QVELEESGGGLVQAGGSLRLSCAASGFIFRYYALGWYRPGPGTVRELVAVISSSGSTHYADSVKGRITISRDNAKNTVYLQMNSLKPEDTAVYYCAADGNVWSGPRYDYWGQGTQLTVSS”, the “polyreactivity (PSR sort gate)” value was “low polyreactivity”. For “QVQLVESGGGLVQAGGSLRLSCAASGITFGPYAMGWYRQAPGKERELVATISSSGGSTYYADSVKGRFTISRDNAKNTVYLQMNSLKPEDTAVYYCNAGYAPYLGAYDYWGQGTQVTVSS”, the “polyreactivity (PSR sort gate)” value was “low polyreactivity”. For “QVQLVESGGGLVQAGGSLRLSCAASGITFRWYAMGWYRQAPGKERELVAAISSSGGSTYYADSVKGRFTISRDNAKNTVYLQMNSLKPEDTAVYYCAAYTSYASDYWGQGTQVTVSS”, the “polyreactivity (PSR sort gate)” value was “high polyreactivity”. With “QVQLVESGGGLVQAGGSLRLRCAASGRTFAFYGMGWYRQAPGNARELVAAITKRGGSTYYADSVKGRFTISLDNAKYTVYLQMNSLKPEDTAVYYCAATGVKGRIAVWYGYWGQGTQVTVSS” the “polyreactivity (PSR sort gate)” value was “high polyreactivity”. For “QVQLVESRGGLVQAGGSLRLSCAASGSTFGWYAMGWYRQAPGKERELVASITSGGRTNYADSVKGRFTISRDNAKITVYLQMNSLKPEDTAVYYCAKRVYGSYSLYDYWGQGTQVNVSS”, the “polyreactivity (PSR sort gate)” value was “low polyreactivity”. For “QVQLVESGRGLVQAGVSLRLSCADSGSTFDYNAMGCYRQATGKERELVPVNRSGGTTYYADSVKGRFTISRDNANNTVYLQMNSLKPEDTAVYYCAAAFQRRAGSYGGSRRYGYWGQVTQVTVSS”, the “polyreactivity (PSR sort gate)” value was “high polyreactivity”. With “QVHLVESVGGLVQAGGSLRLSCAASGGIFCVYAMGWYRQAPGKERELVAAISNSDTSTSYADSVKGRFTISRDNAKNTVYLQMNCLKPEVTAVYYCNADSPSLSGDYWGQGTQVTVSS” the “polyreactivity (PSR sort gate)” value was “low polyreactivity”. With “QVQLVESGGGIVQAGGSLRLSCAASGRIYRYNAMGWYRQAPGKERELVASINQRGGSTYYADSVKGRFTISRDNAKNTVYLQMNSLKPEDTAVYYCAQSFNSGYYYWGQGTQVTVSS” the “polyreactivity (PSR sort gate)” value was “high polyreactivity”. With “QVQLVESGGGLVQAGGSLRLSCAASGRIFRGNAMGWYRQAPGKERELVAAINYSGGSTYYADSVKGRFTISRDNAKNTVYLQMNSLKPEDTAVYYCAAEPGQYGWYYGYGYWGQGTQVTVSS” the “polyreactivity (PSR sort gate)” value was “high polyreactivity”. In the case of “QVQLVESGGGLVQAGGSLRLICAASGIIFYYAMGWYRQAPGKEREFVASIRWSGDSTYYADSVKGRFTISRDNAKNTVYLQMNSLKPEDTAVYYCAAEPDSAVSYVSWRDYWGQGTQVTVSS”, the “polyreactivity (PSR sort gate)” value is reported as “low polyreactivity”. With “QVQLVESGGGLVQAGGSLRLSCAASGSIFYYYAMGWYRQAPGKERELVAAIDSGGSTYYADSVKGRFTISRDNAKNTVYLQMNSLKPEDTAVYYCAADTYWFVYYGYDYWGLGTQVTVSS” the “polyreactivity (PSR sort gate)” value was “low polyreactivity”. With “QVQLVESGGGLVQAGGSLRLSCAASGRIFHGYAMGWYRQAPGKERELVGAINSSGGSTYYADSVKGRFTISRDNAKNTVYLQMNSLKPQDTAVYYCAADWVVSGNNPTVDTYFWYEYWGQGTQVTVSS” the “polyreactivity (PSR sort gate)” value was “low polyreactivity”. In the case of “QDQLVESGGGLVQAGGSLRLRCAASGRTFEGNAMGWYRQAAGTEGELVAAMTSGGPTNSADSVKGRFTISRDNAKNTVYFQMNSLKPEDTAVYYCADETRDRSTYFPGQAYDYWGQGTQVTVSS”, the “polyreactivity (PSR sort gate)” value is reported as “low polyreactivity”. In the case of “QVQLVESGGGLVQAGGSLRLSCAASGSIRYYAMGWYRQAPGKERELVAAISSRGTNTYYADSVKGRFTISRDNAKNTVYLQMNSLKPEDTAVYYCIAVVGLGYNYWGQGTQVTVSS”, the “polyreactivity (PSR sort gate)” value is reported as “high polyreactivity”.

— the nanobody polyreactivity screen of Harvey et al. (2022)
